The values below come from US8691225B2, “Antibodies against the ectodomain of ErbB3 and uses thereof” (Merrimack Pharmaceuticals, Inc., priority 2007, dated 2014).

For series [1], the target named is T1, ErbB3 in MALME-3M xenografts (Homo sapiens, UniProt P21860).
T1 construct: ErbB3 expressed on MALME-3M melanoma cells; host or cells: MALME-3M melanoma cells
Nature of the series: total ErbB3 in MALME-3M xenografts in vivo. More on the design: species or system mouse. Particulars: MALME-3M xenograft, 24 hours post-injection, IgG1 or IgG2 isotype. On the procedure:
T-cell deficient nu/nu mice (3-4 week old female mice originated at NIH; outbred; albino background) were purchased from Charles River Labs (Wilmington, Mass.). MALME-3M cells for implantation were grown in culture (RPMI media, 10% FBS, L-glutamine and antibiotics, 37° C., 5% CO2) to about 80% confluency before harvesting. Cells were kept on ice until implantation.
The tumors were measured (length by width) by digital caliper and the mice were pretreated with murine IgG2a (Sigma, M7769—5 mg) by intravenous injection to block in vivo depletion of tested antibodies by murine Fc receptors.
Final tumor measurements (L×W) were taken, the mice were euthanized by CO2 asphyxiation and tumors were excised, snap frozen in liquid nitrogen, and were stored at −80° C. (for biochemical analysis). Final tumor measurements were analyzed and graphed by tumor area and tumor volume as described, for example, in Burtrum et al., (2003) Cancer Res., 63:8912-8921. The data was also analyzed by “normalized” and “non-normalized” means for both tumor volume and tumor area. For the “normalization” of the data, at each time point of measurement, each tumor in each group was divided by the initial tumor size determined by caliper measurement.

Another series concerns OVCAR8 spheroids. Put plainly: spheroid growth assay. The series is classed as cell-based, human. Particulars: OVCAR8, 25 μg/ml on days 1 and 4. The method, then:
Subconfluent cells are trypsinized, counted, and resuspended in filtered medium. The cell concentration is adjusted to 100,000 cells/ml, and one 20 ul drop (containing 2000 cells) is added to each ring on the underside of the lid of a 96-well plate. The lids with these hanging droplets are then placed back on the original 96-well plate, which contained 100 ul of PBS in each well to maintain moisture. Four days after initial plating, the hanging droplets containing the spheroids are replated into new 96-well plates. This replating involves transferring the lid containing the hanging droplets to a fresh 1% agarose/RPMI-coated 96-well plate that contains 150 ul of medium per well. The plate and lid are then centrifuged together at 500 rpm for 1 minute to transfer the spheroid-containing drops from the lids to the wells. Plates are then further incubated at 37° C. in a humidified CO2 incubator. Spheroids are photographed in an inverted phase contrast microscope. A micrometer scale is also photographed at the same magnification to determine spheroid size. The diameter of the spheroids is determined using METAMORPH image analysis software (MDS Analytical Technologies).
Multicellular tumor spheroids are generated as before.

Series [2] in a line: PK analyses of serum and intra-tumoral levels from xenograft studies. The series is classed as in vivo, mouse. Particulars: serum from animals of the xenograft studies. From the text:
The data (obtained using the methods described above or minor variations thereof) from three different models derived from human tumor cell lines, AdrR (ovarian), Du145 (prostate) and OvCAR8 (ovarian) data are shown in FIGS. 17A-C and Colo357 (pancreatic) xenograft study data are shown in FIG. 17D.

For another series, the system named is MALME-3M cells. Nature of the series: CellTiter-Glo proliferation assay. The series is classed as cell-based, human. To be noted: 96 hours. The method, then:
(§1) MALME3M, ACHN and NCI/AdrR cells are seeded in 96 well tissue culture plates and grown in RPMI-1640 media supplemented with antibiotics, 2 mM L-glutamine and 10% FBS for 24 hours at 37 degrees Celsius and 5% carbon dioxide. […] Cells are grown for 96 hours at 37° C. and 5% carbon dioxide, then harvested with CellTiter-Glo® Luminescent Cell Viability Assay (Promega, G7573) and analyzed on a luminometer. Media containing no serum and antibody is used as control.
In general terms: ATP-based viability assays read luminescence as a measure of living cells.

The next series relates to ACHN cells. Put plainly: CellTiter-Glo proliferation assay. Type of series: cell-based, human. To be noted: 96 hours. The method, then:
as §1

In series [3] the test system is AdrR ovarian cancer cells. Nature of the series: CellTiter-Glo proliferation assay. The series is classed as cell-based, human. Particulars: 96 hours. The method, then:
as §1

Series [4] has as its system OvCAR8 (ovarian) xenograft. Put plainly: xenograft tumor growth in nude mice. The series is classed as in vivo, mouse. On the procedure: (§2) For example, T-cell deficient nu/nu mice (3-4 week old female mice originated at NIH; outbred; albino background) are purchased from Charles River Labs (Wilmington, Mass.) for xenograft studies. AdrR cells for implantation are grown in culture (RPMI media, 10% FBS, L-glutamine and antibiotics, 37° C., 5% CO2) to about 85% confluency before harvesting. Cells are kept on ice until implantation. Mice are implanted via subcutaneous injection with 100 μl AdrR cells (6×10^6 cells in PBS) on the right flank and allowed to recover while being monitored for initial tumor growth.
(§3) Tumors are measured (length by width) by digital caliper and the mice are dosed with IgG2a (Sigma, M7769-5MG) by intravenous injection.
(§4) Final tumor measurements (L×W) are taken, the mice are euthanized by CO2 asphyxiation and tumors are excised, snap frozen in liquid nitrogen, and are stored at −80° C. (for biochemical analysis). Final tumor measurements are analyzed and graphed by tumor area and tumor volume, as described in Burtrum et al., supra. The data are also analyzed by “normalized” and “non-normalized” means for both tumor volume and tumor area. For the “normalization” of the data, at each time point of measurement, each tumor in each group is divided by the initial tumor size determined by caliper measurement.

The subject of another series is AdrR (ovarian) xenograft. Nature of the series: xenograft tumor growth in nude mice. The series is classed as in vivo, mouse. To be noted: 300 ug every three days (Q3d); p<0.05. On the procedure:
as §2, §3, §4

Another series addresses ErbB3 (Homo sapiens, UniProt P21860). Put plainly: Kinetic Exclusion Assay (KinExA). The series is classed as binding. (In KinExA the mixture passes briefly over coated beads that capture the unbound partner.)
For series [5], the target named is T2, AdrR cells expressing ErbB3 receptor (Homo sapiens, UniProt P21860).
T2 construct: host or cells: AdrR (NCI/AdrR) ovarian cancer cells
Nature of the series: HRG and BTC binding to AdrR cells by FACS. Type of series: cell-based.

The test system of series [6] is Du145 (prostate) xenograft. Nature of the series: xenograft tumor growth in nude mice. Type of series: in vivo, mouse.
The mark [7] stands for this setting: 300 ug every three days (Q3d), p<0.05.

B1: Ab #6: human anti-ErbB3 antibody from Fab-phage library, CDRs SEQ ID NOs:7-12; used as IgG1 and IgG2 isotypes; in phase I trials as MM-121 (antibody, V domains shown)
VH: EVQLLESGGGLVQPGGSLRLSCAASGFTFSHYVMAWVRQAPGKGLEWVSSISSSGGWTLYADSVKGRFTISRDNSKNTLYLQMNSLRAEDTAVYYCTRGLKMATIFDYWGQGTLVTVSS
VL: QSALTQPASVSGSPGQSITISCTGTSSDVGSYNVVSWYQQHPGKAPKLIIYEVSQRPSGVSNRFSGSKSGNTASLTISGLQTEDEADYYCCSYAGSSIFVIFGGGTKVTVL
With B1, in series [1], the “downregulation of total ErbB3 in xenograft tumors” value is “significant downregulation of total ErbB3”. Besides, the “decrease in spheroid area” value with OVCAR8 spheroids is 30-40%. Moreover, the serum retention entry in series [2] is reported as “dose-dependent increase in the serum retention”. Also, the inhibition of proliferation entry was “about 19.6%” in the series on MALME-3M cells, “about 25.4%” in the series on ACHN cells and “about 30.5%” in series [3]. Moreover, the “inhibition of tumor growth” value in series [4] (setting [7]) is reported as “significant inhibition of tumor growth”; in series [4] (1500 ug Q3d versus 600 ug), “did not result in increased efficacy”; with AdrR (ovarian) xenograft it was “significant inhibition of tumor growth”; in [6] (setting [7]), “significant inhibition of tumor growth”; in series [6] (600 ug Q3d versus 300 ug), “further elevated”. Besides, the dissociation rate with ErbB3 amounted to 0.00011 s⁻¹. Moreover, in [5], the “competition with BTC for binding to AdrR cells” value is given as “competes with HRG but not BTC”. Besides, in series [5], the “competition with HRG for binding to AdrR cells” value was “competes with HRG”.
